This note sets out measurements from PMC8698322, “Autophagy Is Involved in the Viability of Overexpressing Thioredoxin o1 Tobacco BY-2 Cells under Oxidative Conditions” (Antioxidants, 2021).

The series concerns the molecule itself. The series is described as follows: SDS-PAGE (reductant-free sample buffer) and Western blot with anti-His; recombinant HsATG4B treated with 1 mM or 3 mM H2O2 for 5 min at 25 °C in TBSK buffer (50 mM Tris-HCl, 140 mM NaCl, 30 mM KCl, pH 8.0); high-molecular-weight signal on the blot. Background: Immunoblotting shows a protein as a band on a membrane.

B1: recombinant human ATG4B, His-tagged (His-HsATG4B) (enzyme, UniProt Q9Y4P1 1-393, looked up)
chain: MDAATLTYDTLRFAEFEDFPETSEPVWILGRKYSIFTEKDEILSDVASRLWFTYRKNFPAIGGTGPTSDTGWGCMLRCGQMIFAQALVCRHLGRDWRWTQRKRQPDSYFSVLNAFIDRKDSYYSIHQIAQMGVGEGKSIGQWYGPNTVAQVLKKLAVFDTWSSLAVHIAMDNTVVMEEIRRLCRTSVPCAGATAFPADSDRHCNGFPAGAEVTNRPSPWRPLVLLIPLRLGLTDINEAYVETLKHCFMMPQSLGVIGGKPNSAHYFIGYVGEELIYLDPHTTQPAVEPTDGCFIPDESFHCQHPPCRMSIAELDPSIAVGFFCKTEDDFNDWCQQVKKLSLLGGALPMFELVELQPSHLACPDVLNLSLDSSDVERLERFFDSEDEDFEILSL
notes: human cysteine protease ATG4B, recombinant, bought; printed size with His tag 47 kDa; No catalogue number is printed; source: bought: Abcam
On to B1, for which the binding result is “binds”.
